Data on 3 molecules can be found in patent publication US20150239981A1 (Hoffmann-La Roche, published 2015).

One assay addresses T1, FcγRI (human, UniProt P12314 16-288, limits assumed).
T1 construct: also called FcγR1; FcγRI receptor
Description: SPR Biacore, FIG. 1b. The procedure:
(§1) Binding affinities of different FcγRs towards immunoglobulins were measured by Surface Plasmon Resonance (SPR) using a Biacore T100 instrument (GE Healthcare) at 25° C.
(Surface plasmon resonance follows binding to a sensor surface in real time, without labels.)

For the next assay, the target named is T2, FcγRIIIA-V158 (human, UniProt P08637 17-208, limits assumed).
T2 construct: Soluble analyte in SPR, 0 to 12800 nM; construct not described; also called FcγRIIIA receptor
Description: SPR Biacore, antibody immobilised, receptor as analyte, FIG. 1e. Here is the method: as §1

T1 sequence (P12314 16-288 limits assumed): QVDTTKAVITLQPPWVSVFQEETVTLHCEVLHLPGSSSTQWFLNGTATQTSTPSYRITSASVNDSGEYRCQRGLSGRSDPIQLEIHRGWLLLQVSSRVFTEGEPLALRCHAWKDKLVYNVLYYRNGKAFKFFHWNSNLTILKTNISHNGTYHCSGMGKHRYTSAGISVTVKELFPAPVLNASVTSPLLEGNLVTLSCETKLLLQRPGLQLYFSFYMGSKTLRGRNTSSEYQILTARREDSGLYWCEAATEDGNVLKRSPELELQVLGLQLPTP
T2 sequence (P08637 17-208 F176V limits assumed): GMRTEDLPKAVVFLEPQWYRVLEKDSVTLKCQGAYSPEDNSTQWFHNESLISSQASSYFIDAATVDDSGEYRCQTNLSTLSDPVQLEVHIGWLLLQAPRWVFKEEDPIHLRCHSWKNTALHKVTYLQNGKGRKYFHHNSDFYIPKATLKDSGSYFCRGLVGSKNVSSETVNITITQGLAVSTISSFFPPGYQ

B1: CD9 antibody IgG1-LALA (mAb 40A746.2.3) (antibody)
heavy: not shown
light: DIQMTQTTSSLSASLGDRVTISCSASQGISNYLNWYQQKPDGNVKLLIYYTSSLHSGVPSRFSGSGSGTDYSLTISNLEPEDIATYYCQQYSKLPYTFGGGTKLEIKRTVAAPSVFIFPPSDEQLKSGTASVVCLLNNFYPREAKVQWKVDNALQSGNSQESVTEQDSKDSTYSLSSTLTLSKADYEKHKVYACEVTHQGLSSPVTKSFNRGEC
notes: also called chim-hu-IgG1-LALA
In the case of B1, the binding result in the assay with FcγRI and in the assay with FcγRIIIA-V158 was “binds” in each case.

B2: CD9 antibody IgG4-SPLE (mAb 40A746.2.3) (antibody)
heavy: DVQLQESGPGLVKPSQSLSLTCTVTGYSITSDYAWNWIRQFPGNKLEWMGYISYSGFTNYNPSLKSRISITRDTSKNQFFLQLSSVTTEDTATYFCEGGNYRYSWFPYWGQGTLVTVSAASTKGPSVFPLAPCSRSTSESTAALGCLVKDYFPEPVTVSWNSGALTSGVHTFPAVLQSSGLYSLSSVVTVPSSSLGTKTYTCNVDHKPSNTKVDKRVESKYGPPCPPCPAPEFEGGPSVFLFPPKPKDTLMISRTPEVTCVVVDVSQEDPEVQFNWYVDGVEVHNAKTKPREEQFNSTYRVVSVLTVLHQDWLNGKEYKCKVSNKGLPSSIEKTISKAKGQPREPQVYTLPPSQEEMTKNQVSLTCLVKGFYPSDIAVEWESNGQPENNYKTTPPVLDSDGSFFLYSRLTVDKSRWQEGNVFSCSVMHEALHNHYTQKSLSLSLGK
light: B1 light
notes: also called chim-hu-IgG4-SPLE
Turning to B2, the binding result with FcγRI and with FcγRIIIA-V158 was “binds” each time.

B3: CD9 antibody IgG1-P329G (mAb 40A746.2.3) (antibody)
heavy: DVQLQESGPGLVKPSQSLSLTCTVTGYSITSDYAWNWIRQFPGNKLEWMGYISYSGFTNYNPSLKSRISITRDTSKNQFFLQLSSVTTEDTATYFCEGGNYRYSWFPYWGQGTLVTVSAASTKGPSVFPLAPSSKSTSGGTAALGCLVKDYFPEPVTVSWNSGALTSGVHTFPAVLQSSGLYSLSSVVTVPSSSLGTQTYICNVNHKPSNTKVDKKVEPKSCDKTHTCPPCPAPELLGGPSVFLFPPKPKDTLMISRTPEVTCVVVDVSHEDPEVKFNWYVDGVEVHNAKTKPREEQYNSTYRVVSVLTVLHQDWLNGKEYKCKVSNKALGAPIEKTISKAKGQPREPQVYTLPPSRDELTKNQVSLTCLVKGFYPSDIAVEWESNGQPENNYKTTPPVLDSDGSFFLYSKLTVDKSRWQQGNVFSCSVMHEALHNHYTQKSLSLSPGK
light: B1 light
notes: also called chim-hu-IgG-WT-P329G; TA IgG1 P329G
As to B3, the binding result with FcγRI is reported as “binds”.
